Earlier results, collected in paper PMC5437010.

Biological target: factor XIa (Homo sapiens) (UniProt P03951)
UniProt P03951, sequence (P03951 388-625): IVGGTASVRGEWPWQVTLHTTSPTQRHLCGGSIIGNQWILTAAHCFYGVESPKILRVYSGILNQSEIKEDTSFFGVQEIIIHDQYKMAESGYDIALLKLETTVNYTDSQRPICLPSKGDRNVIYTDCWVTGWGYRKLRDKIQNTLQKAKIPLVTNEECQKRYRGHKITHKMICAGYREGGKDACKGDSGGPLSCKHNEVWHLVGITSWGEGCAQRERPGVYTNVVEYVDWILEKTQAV

Ki: 0.4 nM
Substance: KPI KPI (from UniProt P05067)
